B1: M0228 (VHH)
VHH: EVQLVESGGGLVQAGGSLRLSCAASGRTINDYTMGWFRQAPGKDREFVSAINWRGSSTYYADSVKGRFTISRDNAKKTIYLQMNLLKPEDTAVYYCARQVSPYVELTATAAYWGQGTQVTVSS
notes: Wild-type llama VHH domain; also called anti-C3 antibody M0228
B2: M0251 (VHH)
VHH: EVQLVESGGGLVQAGGSLRLSCVASGHTFGNWAMGWFRQAPGKEREFVGAIRWSVGTTNYRDSVKGRFAISRDNARNTVYLQMNRLKPEDTAVYYCAAGTPFVLARINGYDYWGQGTQVTVSS
notes: Wild-type llama VHH domain; also called anti-C3 antibody M0251
B3: M0124 (antibody, V domains shown)
VH: QSVKESGGRLVTPGTPLTLTCTVSGIDLSRYWMNWVRQAPGKGLEWIGYITTNDKTYYANWAKGRYTISKTSSTTVDLKMTSLTTEDTATYFCARRSSGAYDIWGPGTLVTISS
VL: QPVLTQSPSASATLGASAKLTCTLSSAHKTYYIEWYQQQQGEAPRYLMQLKSDGTYTKGTGVPDRFSGSSSGADRYLIISSVQAEDEADYICGVTGGNVYVFGGGTQLTVTG
notes: Wild-type rabbit VH/VL from a rabbit scFv phage library; ELISA detection used an anti-human Kappa HRP or an anti-His Tag HRP antibody; also called anti-C3 antibody M0124
B4: M0123 (antibody, V domains shown)
VH: QSVKESEGRLVTPGTPLTLTCTASGFTIGSYHMSWVRQAPGKGLEWIGIIYTDGNTDYANWAKGRFTISKTSTTMDLKMTSLTAADTATYFCARRGYADYGYTFNLWGQGTLVTISS
VL: ELVLTQPASVQVNLGQTVSLTCTADTLSRNYASWYQQKPGQAPVLLIYRDTSRPSGVPDRFSGSSSGNTATLTISGAQAGDEADYYCATGDGSGSSYQFVFGGGTQLTVTG
notes: Wild-type rabbit VH/VL from a rabbit scFv phage library; A separate 'scFv-derivative of M0123 (26 kDa)' was used only in the Bruch's membrane diffusion test; also called anti-C3 antibody M0123
B5: M0122 (antibody, V domains shown)
VH: QSVKESGGRLVTPGTPLTLTCTVSGFSLYNYAMNWVRQAPGKGLEWIGIINTDGNTNYASWAKGRFTISTTSSTTVDLKITSPTTEDTATYFCPRAVGYHHHALDPWGPGTLVTVSS
VL: ELVLTQSPSVSAALGASAKLTCTLSSAHKTYTIDWYQQQQGEAPRYLMQLKSDGSYTKGTGVPDRFSGSSSGADRYLIIPSVQADDEADYYCGTDYGGGYVFGGGTQLTVTG
notes: Wild-type rabbit VH/VL from a rabbit scFv phage library; ELISA detection used an anti-human Kappa HRP or an anti-His Tag HRP antibody; also called anti-C3 antibody M0122

How the values were obtained:
human complement C3 [1] = molecular target: T1, human complement C3 (human, UniProt P01024 23-1663); experiment: cell-based or functional assay
T1 sequence (P01024 23-1663): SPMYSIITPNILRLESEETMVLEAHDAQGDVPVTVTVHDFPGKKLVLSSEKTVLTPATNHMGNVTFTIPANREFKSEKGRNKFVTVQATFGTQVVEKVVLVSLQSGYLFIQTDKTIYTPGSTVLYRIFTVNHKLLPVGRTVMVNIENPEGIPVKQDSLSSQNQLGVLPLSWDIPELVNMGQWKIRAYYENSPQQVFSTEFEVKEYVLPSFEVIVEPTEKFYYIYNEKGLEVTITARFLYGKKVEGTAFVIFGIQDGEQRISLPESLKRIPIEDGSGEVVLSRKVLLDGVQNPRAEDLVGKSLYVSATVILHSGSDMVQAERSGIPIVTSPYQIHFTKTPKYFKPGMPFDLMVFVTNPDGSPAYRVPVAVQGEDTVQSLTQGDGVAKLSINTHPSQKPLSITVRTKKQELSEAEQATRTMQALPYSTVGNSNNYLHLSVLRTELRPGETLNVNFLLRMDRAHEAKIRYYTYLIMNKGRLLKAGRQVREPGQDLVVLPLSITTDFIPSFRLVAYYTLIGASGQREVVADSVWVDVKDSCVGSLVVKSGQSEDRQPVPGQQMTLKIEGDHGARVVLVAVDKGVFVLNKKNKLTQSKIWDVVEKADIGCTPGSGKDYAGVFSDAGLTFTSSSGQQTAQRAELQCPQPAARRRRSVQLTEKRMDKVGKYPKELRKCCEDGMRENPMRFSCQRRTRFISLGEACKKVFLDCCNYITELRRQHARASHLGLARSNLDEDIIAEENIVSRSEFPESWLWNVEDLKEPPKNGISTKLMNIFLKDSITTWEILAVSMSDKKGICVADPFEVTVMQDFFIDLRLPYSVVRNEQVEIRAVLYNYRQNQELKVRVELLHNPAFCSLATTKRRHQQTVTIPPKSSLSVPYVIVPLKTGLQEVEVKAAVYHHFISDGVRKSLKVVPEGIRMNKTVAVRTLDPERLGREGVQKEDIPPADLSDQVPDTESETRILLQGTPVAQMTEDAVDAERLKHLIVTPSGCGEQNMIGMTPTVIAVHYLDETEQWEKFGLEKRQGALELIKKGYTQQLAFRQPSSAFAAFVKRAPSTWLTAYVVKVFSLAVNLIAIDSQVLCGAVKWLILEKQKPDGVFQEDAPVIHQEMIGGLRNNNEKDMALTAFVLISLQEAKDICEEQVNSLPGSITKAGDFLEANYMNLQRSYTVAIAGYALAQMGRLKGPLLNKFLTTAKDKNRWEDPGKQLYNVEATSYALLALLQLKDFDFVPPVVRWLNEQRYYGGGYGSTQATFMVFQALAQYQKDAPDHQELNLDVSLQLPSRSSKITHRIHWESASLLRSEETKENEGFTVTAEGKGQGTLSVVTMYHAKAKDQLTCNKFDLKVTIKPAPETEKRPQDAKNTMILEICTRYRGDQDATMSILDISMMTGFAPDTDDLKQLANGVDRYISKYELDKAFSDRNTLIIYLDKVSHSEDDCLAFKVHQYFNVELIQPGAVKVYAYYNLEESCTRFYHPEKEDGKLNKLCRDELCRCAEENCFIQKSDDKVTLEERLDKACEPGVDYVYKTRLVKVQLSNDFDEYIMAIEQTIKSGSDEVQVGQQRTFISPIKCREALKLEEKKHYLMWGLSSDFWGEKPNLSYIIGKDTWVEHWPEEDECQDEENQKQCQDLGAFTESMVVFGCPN

human complement C3 [2] = molecular target: T1, human complement C3; experiment: biolayer interferometry, human C3
human complement C3b = molecular target: T2, human complement C3b (human, UniProt P01024 23-667; P01024 749-1663); experiment: direct ELISA, plate coated with purified human C3b
T2 construct: domain: C3b; Cleavage product of C3 (C3 without C3a)
T2 sequence (P01024 23-667 limits assumed, chain 1 of 2): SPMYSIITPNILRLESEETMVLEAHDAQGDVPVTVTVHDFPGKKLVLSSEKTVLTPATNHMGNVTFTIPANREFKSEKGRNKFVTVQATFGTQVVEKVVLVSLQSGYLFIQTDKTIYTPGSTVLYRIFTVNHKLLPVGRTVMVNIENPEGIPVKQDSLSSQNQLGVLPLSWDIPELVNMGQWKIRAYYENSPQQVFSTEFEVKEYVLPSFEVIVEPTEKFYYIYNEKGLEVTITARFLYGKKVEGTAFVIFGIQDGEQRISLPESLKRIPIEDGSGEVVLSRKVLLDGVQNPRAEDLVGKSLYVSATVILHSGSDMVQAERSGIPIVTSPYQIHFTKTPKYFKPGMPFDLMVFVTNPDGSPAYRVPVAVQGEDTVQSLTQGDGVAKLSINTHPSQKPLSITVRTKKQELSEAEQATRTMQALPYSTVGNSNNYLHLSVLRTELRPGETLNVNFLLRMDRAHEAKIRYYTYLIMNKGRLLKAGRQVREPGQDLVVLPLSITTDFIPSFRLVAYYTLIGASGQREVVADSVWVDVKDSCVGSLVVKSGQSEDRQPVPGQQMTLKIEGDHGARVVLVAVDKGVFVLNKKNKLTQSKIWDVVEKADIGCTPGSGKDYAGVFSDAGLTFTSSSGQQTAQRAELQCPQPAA
T2 sequence (P01024 749-1663 limits assumed, chain 2 of 2): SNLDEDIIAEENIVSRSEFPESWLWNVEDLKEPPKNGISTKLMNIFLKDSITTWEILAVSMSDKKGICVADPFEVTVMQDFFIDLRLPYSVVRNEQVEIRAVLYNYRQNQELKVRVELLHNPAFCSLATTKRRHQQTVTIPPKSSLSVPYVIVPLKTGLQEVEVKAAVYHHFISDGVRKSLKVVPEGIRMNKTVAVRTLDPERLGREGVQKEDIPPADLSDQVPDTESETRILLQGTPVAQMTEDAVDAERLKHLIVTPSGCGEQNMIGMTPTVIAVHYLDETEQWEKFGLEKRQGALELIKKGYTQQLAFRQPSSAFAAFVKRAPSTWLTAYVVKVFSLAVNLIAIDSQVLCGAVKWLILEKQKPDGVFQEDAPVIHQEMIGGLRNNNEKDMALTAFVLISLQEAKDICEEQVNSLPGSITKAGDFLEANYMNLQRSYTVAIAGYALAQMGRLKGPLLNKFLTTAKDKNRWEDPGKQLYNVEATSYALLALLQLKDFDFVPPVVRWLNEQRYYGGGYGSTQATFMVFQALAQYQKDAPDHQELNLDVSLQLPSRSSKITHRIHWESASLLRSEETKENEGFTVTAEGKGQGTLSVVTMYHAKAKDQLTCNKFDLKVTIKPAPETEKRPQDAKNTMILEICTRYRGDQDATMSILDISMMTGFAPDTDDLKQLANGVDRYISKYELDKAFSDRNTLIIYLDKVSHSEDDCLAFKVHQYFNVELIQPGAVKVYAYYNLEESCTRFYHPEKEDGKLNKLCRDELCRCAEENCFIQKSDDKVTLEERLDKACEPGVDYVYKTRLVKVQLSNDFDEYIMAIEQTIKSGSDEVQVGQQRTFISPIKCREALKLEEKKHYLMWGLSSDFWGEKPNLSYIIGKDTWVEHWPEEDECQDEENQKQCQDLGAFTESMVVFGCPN
Method: (§1) M0122, M0124 and M0228 were evaluated for their ability to bind both human C3 and C3b in a direct binding ELISA assay (FIG. 8A and FIG. 8B). Briefly, 96 well ELISA plates were coated with purified native human C3 or C3b (Complement Technology, A113 and A114). Serial dilutions of antibody molecules were added to the plate and detected by a rabbit anti-human Kappa HRP antibody (Abcam, ab202549) or a rabbit anti-His Tag HRP antibody (Abcam, ab1187). M0122, M0124 and M0228 show high affinity binding to both human C3 and C3b.

human complement C3 [3] = molecular target: T1, human complement C3; experiment: direct ELISA, plate coated with purified native human C3
Method: as §1

human complement C3 [4] = molecular target: T1, human complement C3; experiment: competition ELISA on human C3; competitor: biotinylated M0123 (panel title 'Competition with M0123')
Method: (§2) M0251, M0228, M0122, M0123 and M0124 were tested in a pairwise combinatorial manner to identify those that target the same region (epitope) on C3. Briefly, one antibody was labelled via biotinylation and incubated together with other antibody clones in a C3 binding ELISA. Those anti-C3 antibodies that competed for the same binding region were considered to share similar epitopes and therefore to have similar functions. This information enables to reduce the number of potential antibody candidates while maintaining epitope diversity. Out of the five antibodies inhibiting all three complement pathways, M0251, M0228 and M0123 were considered to share the same epitope on C3 (FIG. 7D). Inhibiting leads were assumed to bind three different epitopes on C3 (FIG. 7A-7D).

cynomolgus monkey C3 = molecular target: T3, cynomolgus monkey C3 (cynomolgus monkey (Macaca fascicularis)); experiment: ELISA, cyno C3 captured from cynomolgus serum by coated polyclonal goat antiserum
T3 construct: mature; Native protein from serum; also called cyno C3; cynomolgus C3
Method: Antibodies identified as capable of inhibiting all three complement pathways were assessed for their ability to bind cynomolgus monkey C3 in ELISA. Briefly, 96 well ELISA plates were coated with polyclonal goat antiserum deemed to be cross-reactive to cyno C3 and followed by a secondary association with a custom preparation of cynomolgus monkey serum (BioIVT, NB-151558). Serial dilutions of the antibody molecules were added to the ELISA plate and antibodies binding to cyno C3 were detected with a rabbit anti-human Kappa HRP antibody (Abcam, ab202549) or a mouse anti-His Tag HRP antibody (R&D Systems, MAB050H). Leads M0122, M0124 and M0251 show binding in a dose response manner to cynomolgus monkey C3.

human complement C3 [5] = molecular target: T1, human complement C3; experiment: competition ELISA on human C3; competitor: biotinylated M0251 (panel title 'Competition with M0251')
Method: as §2

human complement C3 [6] = molecular target: T1, human complement C3; experiment: competition ELISA on human C3; competitor: biotinylated M0122 (panel title 'Competition with M0122')
Method: as §2

Row | Binder | inhibition of classical, lectin and alternative complement pathways in human serum (Wieslab Complement system Screen, C5b-C9 neoantigen) (human complement C3 [1]) | Kd (human complement C3 [2]) | koff (human complement C3 [2]) | kon (human complement C3 [2]) | EC50 (read off the curve) (human complement C3b) | EC50 (read off the curve) (human complement C3 [3]) | IC50 (read off the curve) (human complement C3 [4]) | EC50 (read off the curve) (cynomolgus monkey C3) | IC50 (read off the curve) (human complement C3 [5]) | IC50 (read off the curve) (human complement C3 [6])
1 | B1 | ≥ 90% | 0.199 nM | 0.000111 s⁻¹ | 557000 M⁻¹ s⁻¹ | ~0.03 µg/mL | ~0.03 µg/mL | ~2 nM |  |  | 
2 | B2 | ≥ 90% |  |  |  |  |  | ~20 nM | ~5 nM | ~4 nM | 
3 | B3 | ≥ 90% | 0.0124 nM | 5.18e-05 s⁻¹ | 4.16e+06 M⁻¹ s⁻¹ | ~0.04 µg/mL | ~0.07 µg/mL |  | ~3 nM |  | 
4 | B4 | ≥ 90% |  |  |  |  |  | ~9 nM |  |  | 
5 | B5 | ≥ 90% | 0.0528 nM | 4.7e-06 s⁻¹ | 89000 M⁻¹ s⁻¹ | ~0.04 µg/mL | ~0.03 µg/mL |  | ~2 nM |  | ~20 nM
